Laboratory results reported in patent publication US20240084003A1 (SIMCERE ZAIMING PHARMACEUTICAL, published 2024).
Numbering of substitutions follows the chain as printed.

T1: murine CD22 protein (ACROBiosystems, SI2-M52Ha) (murine, UniProt P35329 22-708)
T1 construct: extracellular domain; also called murine CD22-ECD; murine CD22-ECD-His
T1 sequence (looked up): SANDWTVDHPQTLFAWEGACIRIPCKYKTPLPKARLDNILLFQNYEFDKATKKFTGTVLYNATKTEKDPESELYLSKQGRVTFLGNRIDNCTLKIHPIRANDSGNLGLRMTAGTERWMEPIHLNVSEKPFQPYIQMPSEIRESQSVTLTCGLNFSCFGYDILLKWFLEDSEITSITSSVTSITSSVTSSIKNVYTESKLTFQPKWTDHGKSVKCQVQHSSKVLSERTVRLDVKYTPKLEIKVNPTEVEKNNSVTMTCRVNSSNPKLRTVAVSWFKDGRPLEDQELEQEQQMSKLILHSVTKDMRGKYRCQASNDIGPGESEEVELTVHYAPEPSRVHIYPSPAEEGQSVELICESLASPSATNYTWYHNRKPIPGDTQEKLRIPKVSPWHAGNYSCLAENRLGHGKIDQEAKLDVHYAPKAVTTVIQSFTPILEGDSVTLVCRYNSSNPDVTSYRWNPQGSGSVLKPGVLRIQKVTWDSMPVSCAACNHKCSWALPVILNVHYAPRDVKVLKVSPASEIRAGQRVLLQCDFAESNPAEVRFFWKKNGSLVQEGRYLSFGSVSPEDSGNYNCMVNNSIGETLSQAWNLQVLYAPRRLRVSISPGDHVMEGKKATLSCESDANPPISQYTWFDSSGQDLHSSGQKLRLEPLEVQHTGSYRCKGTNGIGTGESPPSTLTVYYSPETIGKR

T2: human CD22, endogenous on Raji cells (human, UniProt P20273 20-847)
T2 construct: whole, on cells; Endogenous protein of the Raji cell line
T2 sequence (looked up): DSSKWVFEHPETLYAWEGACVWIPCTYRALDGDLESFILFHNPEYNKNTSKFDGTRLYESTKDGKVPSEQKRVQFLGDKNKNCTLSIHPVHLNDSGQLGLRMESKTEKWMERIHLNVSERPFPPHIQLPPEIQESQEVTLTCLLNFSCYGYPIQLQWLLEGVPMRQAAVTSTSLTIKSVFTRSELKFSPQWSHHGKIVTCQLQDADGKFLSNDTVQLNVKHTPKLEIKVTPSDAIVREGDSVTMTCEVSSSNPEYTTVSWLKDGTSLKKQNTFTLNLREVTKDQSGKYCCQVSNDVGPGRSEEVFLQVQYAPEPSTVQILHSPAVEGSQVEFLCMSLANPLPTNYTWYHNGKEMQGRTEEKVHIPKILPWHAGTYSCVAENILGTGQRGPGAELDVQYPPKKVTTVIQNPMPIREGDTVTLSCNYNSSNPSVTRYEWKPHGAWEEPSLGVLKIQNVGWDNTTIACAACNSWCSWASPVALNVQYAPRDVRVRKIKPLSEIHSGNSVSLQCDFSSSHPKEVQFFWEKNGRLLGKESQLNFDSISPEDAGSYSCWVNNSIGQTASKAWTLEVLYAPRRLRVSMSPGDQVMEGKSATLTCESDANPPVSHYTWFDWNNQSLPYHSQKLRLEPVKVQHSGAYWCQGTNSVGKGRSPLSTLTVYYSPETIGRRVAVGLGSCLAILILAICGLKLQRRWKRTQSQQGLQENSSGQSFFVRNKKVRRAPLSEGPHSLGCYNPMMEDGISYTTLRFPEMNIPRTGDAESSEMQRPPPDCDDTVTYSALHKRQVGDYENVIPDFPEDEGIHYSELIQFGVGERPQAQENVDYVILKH

T3: human CD22, full length, on CHO-K1-human CD22 2C4 cells (human, UniProt P20273 20-847)
T3 construct: Full-length human CD22 (NCBI NP_001762.2) stably transfected into CHO-K1
T3 sequence: T2 sequence (looked up)

B1: F2.205.9 human-murine chimeric antibody (antibody, human IgG1, lambda, V domains shown)
VH: QVTLKESGPGILQPSQTLSLTCSFSGFSLSTSGMGVGWIRQPSGKGLEWLAHIWWDDDEYYNPALKSRLTISKDTSKNQVFLKIANVDTADTATYYCARISIPYGYYDWFFDVWGTGTTVTVSA
VL: QAVVTQESALTTSPGETVTLTCRSSTGAVTTRNYANWVQEKPDHLFTGLIGGTNNRAPGVPARFSGSLIGDKAALTITGAQTEDEAIYFCALWYSNHFIFGSGTKVTVLG
notes: Chimeric, human IgG1 / lambda; VL tied by name
B2: F2.151.13 human-murine chimeric antibody (antibody, human IgG1, lambda, V domains shown)
VH: QVHLQQPGTELMKPGASVKLSCKATGYTFRDYWLEWVKQRPGHGLEWIGEILPGSGNAYYNEKFKGKATFTADTSSNTAYMQLSSLTTEDSAIYYCARVYSNWYFDAWGKGTTVTVSS
VL: B1 VL with R32S, R56Q, T78S, Y94F, F98W, I99V, S102G, V106L
notes: Chimeric, human IgG1 / lambda
B3: F2.99.1 human-murine chimeric antibody (antibody, human IgG1, lambda, V domains shown)
VH: QVTLKESGPGILQPSQTLSLTCSFSGFSLSTFPMGVGWIRQPSGKGLEWLAHIWWDDDEYYNPVLKSRLTISKDTSKKQVYLRIANVDTVDTATYYCTRANWDRWYFDVWGTGTTVTVSS
VL: QLVLTQSSSASFSLGASAKLTCTLSRQHSAYTIEWYQQQPLKPPKYVMEVKKDGSHSTGDGIPDRFSGSSSGADRYLSISNIQPEDEAIYICGVGDTIKEHFVFGGGTKVTVLG
notes: as for B1
B4: F2.55.1 human-murine chimeric antibody (antibody, human IgG1, lambda, V domains shown)
VH: QVTLKESGPGILQPSQTLSLTCSFSGFSLSTFPLGVGWIRQPSGKGLEWLAHVWWNDDDYYNPALKSRLTISKDTSNTRVFLSVASVDTAETATYYCARLNWDRWYFDVWGTGTTVTVSS
VL: B3 VL with R26S, I33V, V50L, I98V, H101Q
notes: as for B1
B5: F2.42.9 human-murine chimeric antibody (antibody, human IgG1, lambda, V domains shown)
VH: QVTLKESGPGILQPSQTLSLTCSFSGFSLSTFDRGVGWIRQPSGKGLEWLAHIWWNDKKFYNPVLKSRLTISKDTSKNQVFLTIANVDSADTATYSCARIVWDKYYFDYWGQGIPLTVSS
VL: B3 VL with R26S, Y46F, E49D, V50L, D64A, S78T, H101Q, F102Y
notes: as for B1
B6: F2.127.11 human-murine chimeric antibody (antibody, human IgG1, lambda, V domains shown)
VH: QVTLKESGPGILQPSQTLSLTCSFSGFSLSTFGMGVGWIRQPSGKGLEWLAHIWWDDDKHYNPALKSRLTISKDTSRNQVFLKIANVDTADGATYFCARDNWVSSLDYWGQGTSVIVSS
VL: QPVITQSSSASFSLGASAELTCTLSSQHSTYTIEWYQQQPLKPPKYVMGLKKDGSHSTGDGIPDRFSGSSSGADRYLSISNIQPEDEAIYICGVSDTIKEQFVYVFGGGTKVTVLG
notes: as for B1
B7: F2.343.16 human-murine chimeric antibody (antibody, human IgG1, lambda, V domains shown)
VH: QVQLKQSGPGLVQPSQSLSITCTVSGFSLTGYGVQWVRQSPGKGLEWLGVIWGGGGTDYNAAFISRLNIIKDNSKSQVFFKMNSLQADDTAIYYCARYSKYGHFDVWGTGTAVTVSS
VL: QAVVTQESALTTSPGETVTLTCRSSTGAVTTSNYANWVQEKPDHLFTGLIGGTYNRVPGVPARFSGSLIGDKAALTITGAQTEDEAIYFCALWYSNHFWVFGGGTKLTVLG
notes: as for B1

Molecular target: T1, murine CD22 protein (ACROBiosystems, …)
Assay: ELISA, coated murine CD22, 0.1 nM Ab
Procedure, shortened: (§1)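 Coat 2 μg/mL CD22 in PBS, overnight 4° C; block PBS/2% BSA 2 h RT. Ab 2 h 37° C; HRP anti-species secondary 2 h 37° C. TMB 30 min RT, stop 1.0 N HCl.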

Row | Binder | OD450 [OD450]
1 | B1 | 0.05
2 | B2 | 0.07
3 | B3 | 0.05
4 | B4 | 0.06
5 | B5 | 0.08
6 | B6 | 0.06
7 | B7 | 0.05

Molecular target: T1, murine CD22 protein (ACROBiosystems, …)
Assay: ELISA, coated murine CD22, 0.0001 nM Ab
Procedure, shortened: as §1

Row | Binder | OD450 [OD450]
8 | B1 | 0.05
9 | B2 | 0.07
10 | B3 | 0.05
11 | B4 | 0.06
12 | B5 | 0.08
13 | B6 | 0.06
14 | B7 | 0.05

Molecular target: T1, murine CD22 protein (ACROBiosystems, …)
Assay: ELISA, coated murine CD22, 0.01 nM Ab
Procedure, shortened: as §1

Row | Binder | OD450 [OD450]
15 | B1 | 0.05
16 | B2 | 0.07
17 | B3 | 0.06
18 | B4 | 0.05
19 | B5 | 0.07
20 | B6 | 0.05
21 | B7 | 0.05

Molecular target: T2, human CD22, endogenous on Raji cells
Assay: FACS, Raji cells
Text: (§2) The required cells were scale-up cultured in a T-75 cell culture flask to the logarithmic growth phase. For the adherent cell CHO-K1, the medium was aspirated, the cells were washed 2 times with PBS buffer, and then digested with trypsin. After the digestion was terminated, the cells were washed 2 times with PBS buffer. For suspension cell Raji, the medium supernatant was directly centrifuged and discarded, and the cell pellet was washed 2 times with PBS. After counting the cells in the previous step, the cell pellet was resuspended with [PBS+2% (w/w) BSA] blocking solution to 2×10⁶ cells/ml, and added to a 96-well FACS reaction plate at 50 μl/well, and then the chimeric antibody test sample was added at 50 μl/well, and incubated on ice for 2 hours. The mixture was centrifuged and washed 3 times with PBS buffer, Alexa Flour 488-labeled secondary antibody (purchased from Invitrogen, catalog number: A-11013) was added at 50 μl/well, and incubated on ice for 1 hour. The obtained mixture was centrifuged and washed 5 times with PBS, and FACS (FACS Canto™, purchased from BD Company) was used for detection and result analysis. Data analysis was performed by software (CellQuest) to obtain the mean fluorescence density (MFI)of the cells. And then software (GraphPad Prism8) was used for analysis, data fitting, and EC50 value calculation. […] The same method was used to detect the binding of the chimeric antibodies to endogenous CD22-negative cell MoLT4 cells (purchased from ATCC, CRL-1582) and CHO-K1 cells.

Row | Binder | EC50 [nM] | Maximum mean fluorescence intensity [MFI]
22 | B1 | 0.38 | 15500
23 | B2 | 1.26 | 18800
24 | B3 | 0.59 | 18100
25 | B4 | 0.41 | 18600
26 | B5 | 0.33 | 16700
27 | B6 | 0.59 | 24400
28 | B7 | 0.8 | 19300

Molecular target: T1, murine CD22 protein (ACROBiosystems, …)
Assay: ELISA, coated murine CD22, 100 nM Ab
Procedure, shortened: as §1

Row | Binder | OD450 [OD450]
29 | B1 | 0.07
30 | B2 | 0.09
31 | B3 | 0.07
32 | B4 | 0.09
33 | B5 | 0.09
34 | B6 | 0.1
35 | B7 | 0.07

Molecular target: T1, murine CD22 protein (ACROBiosystems, …)
Assay: ELISA, coated murine CD22, 0.00001 nM Ab
Procedure, shortened: as §1

Row | Binder | OD450 [OD450]
36 | B1 | 0.06
37 | B2 | 0.07
38 | B3 | 0.06
39 | B4 | 0.06
40 | B5 | 0.08
41 | B6 | 0.06
42 | B7 | 0.06

Molecular target: T1, murine CD22 protein (ACROBiosystems, …)
Assay: ELISA, coated murine CD22, 0.001 nM Ab
Procedure, shortened: as §1

Row | Binder | OD450 [OD450]
43 | B1 | 0.05
44 | B2 | 0.07
45 | B3 | 0.05
46 | B4 | 0.05
47 | B5 | 0.07
48 | B6 | 0.05
49 | B7 | 0.05

Molecular target: T1, murine CD22 protein (ACROBiosystems, …)
Assay: ELISA, coated murine CD22, 10 nM Ab
Procedure, shortened: as §1

Row | Binder | OD450 [OD450]
50 | B1 | 0.06
51 | B2 | 0.08
52 | B3 | 0.06
53 | B4 | 0.06
54 | B5 | 0.08
55 | B6 | 0.07
56 | B7 | 0.06

Molecular target: T3, human CD22, full length, on …
Assay: FACS, CHO-K1-human CD22 2C4 cells
Text: as §2

Row | Binder | EC50 [nM] | Maximum mean fluorescence intensity [MFI]
57 | B1 | 0.72 | 40200
58 | B2 | 3.28 | 37000
59 | B3 | 0.83 | 44800
60 | B4 | 0.82 | 42000
61 | B5 | 0.87 | 41000
62 | B6 | 1.22 | 58500
63 | B7 | 1.15 | 50200
